Reference: patent US12528864 (GlaxoSmithKline, dated 2026)
Where a chain is given by its changes, count along the chain named.

T1: human CD96v2 expressed on cells (CHO cells; transiently transfected HEK cells) (human, UniProt P40200-2 22-569)
T1 construct: whole, on cells; the cell is named under assay; also called CHO-huCD96; hCD96v2
T1 sequence (looked up): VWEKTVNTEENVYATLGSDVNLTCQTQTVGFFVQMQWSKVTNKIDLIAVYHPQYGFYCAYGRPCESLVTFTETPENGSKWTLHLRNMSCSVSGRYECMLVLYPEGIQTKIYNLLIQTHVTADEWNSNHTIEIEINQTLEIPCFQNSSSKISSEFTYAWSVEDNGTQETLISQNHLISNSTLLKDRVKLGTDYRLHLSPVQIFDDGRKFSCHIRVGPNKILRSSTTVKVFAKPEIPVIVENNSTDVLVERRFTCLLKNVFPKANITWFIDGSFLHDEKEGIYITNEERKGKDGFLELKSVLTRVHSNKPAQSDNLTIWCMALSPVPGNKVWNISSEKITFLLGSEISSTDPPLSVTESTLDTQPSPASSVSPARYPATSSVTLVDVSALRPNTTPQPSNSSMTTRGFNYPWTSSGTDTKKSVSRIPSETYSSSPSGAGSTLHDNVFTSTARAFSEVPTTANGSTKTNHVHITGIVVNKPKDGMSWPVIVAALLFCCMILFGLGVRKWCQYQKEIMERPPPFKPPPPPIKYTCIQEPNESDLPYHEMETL

T2: cynomolgus monkey CD96v2 expressed on cells (CHO cells; transiently transfected HEK cells) (cynomolgus monkey, UniProt A0A2K5TWV6 22-569)
T2 construct: the cell is named under assay; also called CHO-cyCD96; Cyno CD96v2
T2 sequence: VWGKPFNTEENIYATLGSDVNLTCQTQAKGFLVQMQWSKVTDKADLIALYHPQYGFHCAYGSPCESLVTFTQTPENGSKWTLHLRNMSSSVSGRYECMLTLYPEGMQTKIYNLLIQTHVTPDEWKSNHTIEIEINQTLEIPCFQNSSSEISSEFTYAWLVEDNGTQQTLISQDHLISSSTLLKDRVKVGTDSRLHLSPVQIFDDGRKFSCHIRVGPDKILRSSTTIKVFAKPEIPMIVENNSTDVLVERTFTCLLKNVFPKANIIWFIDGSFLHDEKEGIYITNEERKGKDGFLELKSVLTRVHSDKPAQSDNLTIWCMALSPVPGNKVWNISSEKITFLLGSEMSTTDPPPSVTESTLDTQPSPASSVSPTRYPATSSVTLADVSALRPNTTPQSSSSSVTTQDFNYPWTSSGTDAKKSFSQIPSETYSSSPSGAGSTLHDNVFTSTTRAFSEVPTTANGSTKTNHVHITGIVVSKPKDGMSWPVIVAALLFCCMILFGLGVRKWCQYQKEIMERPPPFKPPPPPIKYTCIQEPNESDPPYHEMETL

B1: 42Y073-86F08-1 (antibody, V domains shown)
VH: QVQLVQSGAEVKKPGSSVKVSCKASGGTFSSYAISWVRQAPGQGLEWMGGIIPIFGTASYAQKFQGRVTITADESTSTAYMELSSLRSEDTAVYYCARGAGYYGDKDPMDVWGQGTTVTVSS
VL: DIQLTQSPSSLSASVGDRVTITCRASQSISSYLNWYQQKPGKAPKLLIYAASSLQSGVPSRFSGSGSGTDFTLTISSLQPEDFATYYCQQVLHTITFGGGTKVEIK
B2: 42Y073-86F08-17 (antibody, V domains shown)
VH: B1 VH with S30R, S31E, I54V, S59N
VL: B1 VL
notes: Fully human antibody; also called 42Y073-88F08-17
B3: 42Y073-86F08-8 (antibody, V domains shown)
VH: B1 VH with S30W, S31L, I54Q, F55L, S59N
VL: B1 VL
notes: Fully human antibody; also called 42Y073-88F08-8
B4: 42Y073-86F08-47 (antibody, V domains shown)
VH: B1 VH with S31Q, S35H, G50V, T57K, S59N
VL: B1 VL
notes: Fully human antibody
B5: 42Y073-86F08-22 (antibody, V domains shown)
VH: B1 VH with S16A, G27Y, S30D, I34M, S35H, S59W
VL: B1 VL
notes: Fully human antibody
B6: 42Y073-86F08-4 (antibody, V domains shown)
VH: B1 VH with S31E, S35H, G50N, S59G
VL: B1 VL
notes: Fully human antibody
B7: 42Y073-86F08-3 (antibody, V domains shown)
VH: B1 VH with S30V, S31N, I54A, F55L, S59N
VL: B1 VL
notes: Fully human antibody
B8: 42Y073-86F08-16 (antibody)
heavy: not shown
light: DIQLTQSPSSLSASVGDRVTITCRASQSISSYLNWYQQKPGKAPKLLIYAASSLQSGVPSRFSGSGSGTDFTLTISSLQPEDFATYYCQQVLHTITFGGGTKVEIKRTVAAPSVFIFPPSDEQLKSGTASVVCLLNNFYPREAKVQWKVDNALQSGNSQESVTEQDSKDSTYSLSSTLTLSKADYEKHKVYACEVTHQGLSSPVTKSFNRGEC
notes: also called 42Y073-88F08-16
B9: 42Y073-2B04-46 (antibody, V domains shown)
VH: QVQLQQWGAGLLKPSETLSLTCAVYGGSFRRYYWSWIRQPPGKGLEWIGEIDGWGSTNYNPSLKSRVTISVDTSKNQFSLKLSSVTAADTAVYYCARGGSVDFWSGSDYYYYMDVWGKGATVTVSS
VL: EIVLTQSPATLSLSPGERATLSCRASQSVSSYLAWYQQKPGQAPRLLIYDASKRATGIPARFSGSGSGTDFTLTISSLEPEDFAVYYCQQLDNWPITFGGGTKVEIK
notes: Fully human antibody; also called 42Y073-2804-46
B10: 42Y073-1A01-103 (antibody, V domains shown)
VH: QVQLVQSGAEVKKPGASVKVSCKASGYTFTAYQMHWVRQAPGQGLEWMGIINPAGGWTSYAQKFQGRVTMTRDTSTSTVYMELSSLRSEDTAVYYCARETAYYTTKGNWFDPWGQGTLVTVSS
VL: DIQMTQSPSSLSASVGDRVTITCRASQSISSYLNWYQQKPGKAPKLLIYAASSLQSGVPSRFSGSGSGTDFTLTISSLQPEDFATYYCQQSLYPPRTFGGGTKVEIK
notes: Fully human antibody
B11: 42Y073-86F04-88 (antibody, V domains shown)
VH: QVQLVQSGAEVKKPGSSVKVSCKASGGTFSSSAISWVRQAPGQGLEWMGGIIPIFGRANYAQKFQGRVTITADESTSTAYMELSSLRSEDTAVYYCARLLGESGMDVWGQGTTVTVSS
VL: B10 VL with S91P, L92Y, Y93F, P94S, R96P
notes: Fully human antibody
B12: 42Y073-86F04-6 (antibody, V domains shown)
VH: B11 VH with S31G, S32H, N59R
VL: B10 VL with S91P, L92Y, Y93F, P94S, R96P
notes: Fully human antibody
B13: 42Y073-1A01-126 (antibody, V domains shown)
VH: B10 VH with A31R, Q33N, I50W, W57S, S123A
VL: B10 VL
notes: Fully human antibody
B14: 42Y073-86F04-3 (antibody, V domains shown)
VH: B11 VH with S31Y, S32N, F55M, R57T, N59R
VL: B10 VL with S91P, L92Y, Y93F, P94S, R96P
notes: Fully human antibody
B15: 42Y073-1A01-97 (antibody, V domains shown)
VH: B10 VH with A31R, Y32A, Q33A, W57Y
VL: B10 VL
notes: Fully human antibody
B16: 42Y073-1A01-191 (antibody, V domains shown)
VH: B10 VH with A31K, Q33R, A54Q, W57S, S123A
VL: B10 VL
notes: Fully human antibody
B17: 42Y073-86F04-18 (antibody, V domains shown)
VH: B11 VH with S32R, F55M, R57T, N59R
VL: B10 VL with S91P, L92Y, Y93F, P94S, R96P
notes: Fully human antibody
B18: 42Y073-1A01-85 (antibody, V domains shown)
VH: B10 VH with A31S, Q33P, A54S, W57F, S123A
VL: B10 VL
notes: Fully human antibody
B19: 42Y073-1A01-100 (antibody, V domains shown)
VH: B10 VH with A31T, Q33R, A54S, W57L, S59Q
VL: B10 VL
notes: Fully human antibody
B20: 42Y073-86F04-33 (antibody, V domains shown)
VH: B11 VH with S32Y, I52L
VL: B10 VL with S91P, L92Y, Y93F, P94S, R96P
notes: Fully human antibody
B21: 42Y073-86F04-5 (antibody, V domains shown)
VH: B11 VH with S32H, A58G, N59K
VL: B10 VL with S91P, L92Y, Y93F, P94S, R96P
notes: Fully human antibody
B22: 42Y073-86F04-4 (antibody, V domains shown)
VH: B11 VH with S30E, S32E, N59R
VL: B10 VL with S91P, L92Y, Y93F, P94S, R96P
notes: Fully human antibody

biological target: T1, human CD96v2 expressed on cells (CHO …); test: flow cytometry, inhibition of human CD155-Fc-AF647 binding to CHO cells expressing human CD96v2; competitor CD155-Fc

IC50	Binder
0.33 nM	B1
0.52 nM	B2
0.93 nM	B3
0.17 nM	B4
0.41 nM	B5
0.38 nM	B6
0.28 nM	B7
0.78 nM	B8
0.4 nM	B9
0.03 nM	B10
0.21 nM	B11
0.25 nM	B12
0.1 nM	B13
0.31 nM	B14
0.03 nM	B15
0.03 nM	B16
0.59 nM	B17
0.03 nM	B18
0.06 nM	B19
0.71 nM	B20
0.38 nM	B21
0.18 nM	B22

biological target: T2, cynomolgus monkey CD96v2 expressed on …; test: flow cytometry on CHO cells expressing cynomolgus CD96v2

EC50	Binder
0.03 nM	B2
0.03 nM	B3
0.06 nM	B4
0.09 nM	B5
0.07 nM	B6
0.04 nM	B8
0.04 nM	B9
0.03 nM	B10
0.16 nM	B11
0.11 nM	B12
0.03 nM	B13
0.04 nM	B14
0.02 nM	B15
0.02 nM	B16
0.11 nM	B17
0.01 nM	B18
0.04 nM	B19
0.05 nM	B20
0.07 nM	B21
0.07 nM	B22

biological target: T1, human CD96v2 expressed on cells (CHO …); test: flow cytometry on CHO cells expressing human CD96v2

EC50	Binder
0.07 nM	B1
0.1 nM	B2
0.17 nM	B3
0.05 nM	B4
0.03 nM	B5
0.04 nM	B6
0.04 nM	B7
0.03 nM	B8
1.06 nM	B9
0.02 nM	B10
0.05 nM	B11
0.06 nM	B12
0.02 nM	B13
0.04 nM	B14
0.77 nM	B15
0.01 nM	B16
0.07 nM	B17
0.47 nM	B18
0.02 nM	B19
0.04 nM	B20
0.05 nM	B21
0.04 nM	B22
